Results on two molecules are retold here after patent US20160102367A1 (TRUSTEES OF COLUMBIA UNIVERSITY IN THE CITY OF NEW YORK, published 2016).

Non-standard residues stand in square brackets, D forms with d. No end group written: not given here. *: point of attachment. Biotin = O=C1N[C@H]2[C@H](CS[C@H]2CCCCC(=O)*)N1; pY = N[C@@H](Cc1ccc(OP(=O)(O)O)cc1)C(=O)O

What all share (experiment): streptavidin-biotin peptide pull down, anti-GST Western blot
The target of assay [1] is T1, GST-FYN-SH2 (wild type FYN SH2 domain, codons 148-231, N-terminal GST tag) (UniProt P06241 148-231).
T1 construct: range 148-231; Expressed in E. coli Rosetta 2(DE3) and purified on glutathione Sepharose; also called GST-SH2-FYN; GST-FYN SH2 domain; not shown: N-terminal GST tag from the pGEX4-T1 vector
The protocol:
(§1) GST-tagged FYN SH2 domain proteins were purified by binding them to immobilized glutathione Sepharose beads (Thermo scientific) and eluting them with 50 mM reduced Glutathione, 50 mM Tris, pH 7.4, 150 mM NaCl, 5% glycerol, 5 mM β-mercaptoethanol. Protein expression and purity were assessed by Coomassie staining. Binding assay was performed with Pull-Down Biotinylated Protein-protein Interaction Kit (Thermo scientific) according to the manufacturer's instructions using an amino acid 527-537 FYN biotinylated peptide (biotin-[…])(SEQ ID NO: 1); an amino acid 527-537 pY531 FYN biotinylated peptide (biotin-TEPQpYQPGENL)(SEQ ID NO: 2) and an amino acid 527-537 […] FYN biotinylated peptide (biotin-[…])(SEQ ID NO: 3) (Anaspec Inc). Synthetic biotinylated peptides were incubated with purified GST-FYN SH2 domain, mutant FYN SH2 domain or GST alone for 1 h at 4° C. Interacting proteins were resolved on 10% SDS-polyacrylamide gel electrophoresis (SDS-PAGE) and transferred to a PVDF membrane and subjected to Western blot with an anti-GST antibody.
(§2) In addition, structure model analysis of FYN and FYN mutant proteins further supported this hypothesis. (See FIG. 4C which is a molecular ribbon representation of wild type FYN protein structure showing the positioning of the FYN SH2 domain and the C terminal Tyr531 phosphosite and FIG. 4D which illustrates structure modeling of FYN Tyr531His, FYN Arg176Cys and FYN Leu174Arg mutant proteins.) The interaction between GST-FYN-SH2 recombinant proteins and biotinylated C-terminal FYN peptides encompassing the position Tyr531 was analyzed. In these assays, wild type GST-FYN-SH2 was effectively pulled down with a Tyr531 phosphopeptide, but not with the corresponding unphosphorylated sequence or with a peptide containing a Tyr531His substitution. […]

The next assay deals with T2, GST-SH2-FYN Arg176Cys (Homo sapiens (Human), UniProt P06241 148-231).
T2 construct: also called GST-FYN-SH2 R176C; not shown: The N-terminal GST tag and the pGEX4-T1 linker
Here is the method:
as §1, §2

A further assay addresses T3, GST-SH2-FYN Leu174Arg (Homo sapiens (Human), UniProt P06241 148-231).
T3 construct: also called GST-FYN-SH2 L174R; not shown: The N-terminal GST tag and the pGEX4-T1 linker
Here is the method:
as §1, §2

T2 sequence (P06241 148-231 R176C limits assumed): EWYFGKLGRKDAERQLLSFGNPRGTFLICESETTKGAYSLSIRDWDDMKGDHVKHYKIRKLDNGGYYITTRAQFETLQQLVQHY
T1 sequence (P06241 148-231): as the sequence (P06241 148-231 R176C limits assumed) above, with C29R counted along it
T3 sequence (P06241 148-231 L174R limits assumed): as the sequence (P06241 148-231 R176C limits assumed) above, with L27R, C29R counted along it

B1: amino acid 527-537 Y51H FYN biotinylated peptide (biotin-TEPQHQPGENL) (peptide)
peptide: Biotin-TEPQHQPGENL
notes: also called mutant Tyr531His FYN C-terminal peptide
Regarding B1, the binding result in assay [1] is recorded as “no binding”.

B2: amino acid 527-537 pY531 FYN biotinylated peptide (biotin-TEPQpYQPGENL) (peptide)
peptide: Biotin-TEPQ[pY]QPGENL
notes: Synthetic peptide (Anaspec Inc); also called Tyr531 phosphopeptide; P-Tyr531 FYN C-terminal peptide
On to B2, for which the binding result with GST-SH2-FYN Arg176Cys and in the assay with GST-SH2-FYN Leu174Arg was “no binding” in each case.
